# In patent US20230220399:
# Read-outs that look alike come from different tables or passages of the source.
# Assays:
# [1] = molecular target: 4-1BB (TNFRSF9) (Homo sapiens) (UniProt Q07011); conditions: ELISA
# [2] = molecular target: human serum albumin (HSA) (Homo sapiens) (UniProt P02768); conditions: ELISA, SB18, 37 C
# [3] = molecular target: PD-L1 (B7-H1) (Homo sapiens) (UniProt Q9NZQ7); conditions: ELISA, SB18, 37 C
# KRAS G12D G12D, P01116-2 = conditions: ELISA, SB18, 37 C
# [4] = Nap-dU at n (6) positions [Nap-dU at 24,31,33,36,39,40,43,52]
# [5] = Nap-dU at n (6) positions [5,11,13,19,21,23,28]
# [6] = Nap-dU at n (6) positions [5,11,13,19,21,23,28,36,38]
# [7] = Nap-dU at n (6) positions [5,11,13,19,21,23,28,36,38,42-44]
# [8] = Nap-dU at n (6) positions [5,11,13,19,21,23,28,36,38,42,43,44,45]
# [9] = Nap-dU at n (6) positions [5,11,13,19,21,23,28,36,38,42-45,52,54]
# [10] = Nap-dU at n (6) positions [5,11,13,19,21,23,28,36,37,39,44,45,50,52,54]
# [11] = Nap-dU at n (6) positions [8,10-11,13,18-19,24,26,29]
# [12] = Nap-dU at n (6) positions [8,10-11,13,18-19,24,26,29,36,39]
# [13] = Nap-dU at n (6) positions [3,5-6,8,13-14,19,21,24]
# [14] = Nap-dU at n (6) positions [5,7,9,14,22,24,28,29,30,31,38,40]
# [15] = Nap-dU at n (6) positions [2,4,10,12,14,19,27,29,33,34,35,36,43,45]
# [16] = Nap-dU at n (6) positions [4,9,13,19,26,27,28,30]
# [17] = Nap-dU at n (6) positions [Nap-dU at 29,36,38,41,44,45,48,57]
# [18] = Nap-dU at n (6) positions [16,25,27-28,30,35-36,41,43,46,53,56]
# [19] = Nap-dU at n (6) positions [12,21,26,30,36,43,44,45,47,56]
# [20] = Nap-dU at n (6) positions [Nap-dU at 18,22,26,34,36,39,42,43,46,52,57]
# [21] = Nap-dU at n (6) positions [18,20,22,32,33,34,35,36,44,45,47,53,57 (Nap-dU)]
# [22] = Nap-dU at n (6) positions [18,20,26,27,29,31,35,36,42,45,53,54,55,56]
# [23] = Nap-dU at n (6) positions [4,8,14,21-23,25]
# [24] = Nap-dU at n (6) positions [4,8,14,21,22,23,25]
# [25] = Nap-dU at n (6) positions [Nap-dU at 4,17,24,26,29,32,33,36,45]
# [26] = Nap-dU at n (6) positions [13,15-16,18,23-24,29,31,34,41,44]
# [27] = Nap-dU at n (6) positions [9,14,18,24,31,32,33,35,44]
# [28] = Nap-dU at n (6) positions [Nap-dU at 21,28,30,33,36,37,40,49]
# [29] = Nap-dU at n (6) positions [2,4,9,17,19,23,24,25,26,33,35]
# [30] = Nap-dU at n (6) positions [1,7,9,15,17,19,24,32,34,38,39,40,41,48,50]
# [31] = Nap-dU at n (6) positions [1,6,7,8,14,16,18,20], SB18, 37 C
# [32] = Nap-dU at n (6) positions [1,6,7,8,14,16,18,20]
# Sequence of PD-L1 (B7-H1) (Homo sapiens) (Q9NZQ7 19-238): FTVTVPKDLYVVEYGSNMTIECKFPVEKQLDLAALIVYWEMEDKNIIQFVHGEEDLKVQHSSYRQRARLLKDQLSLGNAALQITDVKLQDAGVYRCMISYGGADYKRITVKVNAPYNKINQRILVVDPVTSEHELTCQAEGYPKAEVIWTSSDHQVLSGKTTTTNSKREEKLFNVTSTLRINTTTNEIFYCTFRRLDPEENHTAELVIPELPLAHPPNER
# Sequence of 4-1BB (TNFRSF9) (Homo sapiens) (Q07011 24-186): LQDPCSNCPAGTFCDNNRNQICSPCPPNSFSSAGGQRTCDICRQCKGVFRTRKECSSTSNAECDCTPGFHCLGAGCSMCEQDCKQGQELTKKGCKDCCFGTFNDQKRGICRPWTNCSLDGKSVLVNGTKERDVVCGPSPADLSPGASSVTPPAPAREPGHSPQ
sequence,measurement,setting,value
AACCTCGCCTTTACAACTATATCTGACGAAC [AB005],Kd,"[1]; Nap-dU at n (6) positions [5,10,11,12,18,20,22,24], SB18, 37 C",0.12 nM
same,Kd,"[2]; Nap-dU at n (6) positions [5,10,11,12,18,20,22,24]",53.5 nM
AACCTCGCCTTTACAACTATATCTGACGAACTAACA [AB004],Kd,"[1]; Nap-dU at n (6) positions [5,10,11,12,18,20,22,24,32], SB18, 37 C",0.05 nM
same,Kd,"[2]; Nap-dU at n (6) positions [5,10,11,12,18,20,22,24,32]",102 nM
ACCGTCTGCCTGACAACAACGAGTGCGAACTGTACTACTTGATAGAGACCCTCAGCCACACCACCAGCC [AP021],Kd,[3]; [4],130 nM
same,Kd,[2]; [4],15.6 nM
CAGGTCGAGCTGTACGCGTGTGTGACCTGAAGAC [AD043],Kd,"KRAS G12D G12D, P01116-2; [5]",263 nM
same,Kd,[2]; [5],4.18 nM
CAGGTCGAGCTGTACGCGTGTGTGACCTGAAGACGTATA [AD044],Kd,"KRAS G12D G12D, P01116-2; [6]",1580 nM
same,Kd,[2]; [6],2.93 nM
CAGGTCGAGCTGTACGCGTGTGTGACCTGAAGACGTATAACTTT [AD045],Kd,"KRAS G12D G12D, P01116-2; [7]",20 nM
same,Kd,[2]; [7],0.73 nM
CAGGTCGAGCTGTACGCGTGTGTGACCTGAAGACGTATAACTTTTACAG [AD046],Kd,"KRAS G12D G12D, P01116-2; [8]",5.38 nM
same,Kd,[2]; [8],0.65 nM
CAGGTCGAGCTGTACGCGTGTGTGACCTGAAGACGTATAACTTTTACAGAATCTACA [AD032],Kd,"KRAS G12D G12D, P01116-2; [9]",15.5 nM
same,Kd,[2]; [9],0.68 nM
CAGGTCGAGCTGTACGCGTGTGTGACCTGCCCCACTTCTGACATTAGACTGTGTAGA [AD034],Kd,"KRAS G12D G12D, P01116-2; [10]",473 nM
same,Kd,[2]; [10],0.59 nM
CCCCGCCTCTTCTGAAGTTAACATGTGCTCC [AD014],Kd,"KRAS G12D G12D, P01116-2; [11]",1.95 nM
same,Kd,[2]; [11],28.8 nM
CCCCGCCTCTTCTGAAGTTAACATGTGCTCCGAGA [AD012],Kd,"KRAS G12D G12D, P01116-2; [11]",23.1 nM
same,Kd,[2]; [11],28.7 nM
CCCCGCCTCTTCTGAAGTTAACATGTGCTCCGAGATGGTA [AD011],Kd,"KRAS G12D G12D, P01116-2; [12]",9.46 nM
same,Kd,[2]; [12],5.46 nM
CCTCTTCTGAAGTTAACATGTGCTCC [AD015],Kd,[2]; [13],36.8 nM
CCTCTTCTGAAGTTAACATGTGCTCCGAGA [AD013],Kd,"KRAS G12D G12D, P01116-2; [13]",3.99 nM
same,Kd,[2]; [13],47 nM
CGCGTGTGTGACCTGAAGACGTATAACTTTTACAGAATCTACA [AD051],Kd,"KRAS G12D G12D, P01116-2; [14]",514 nM
same,Kd,[2]; [14],5.95 nM
CTGTACGCGTGTGTGACCTGAAGACGTATAACTTTTACAGAATCTACA [AD052],Kd,"KRAS G12D G12D, P01116-2; [15]",4.93 nM
same,Kd,[2]; [15],3.06 nM
GACTAGCATAAGTCCGGATGGCAGCTTTATGCCG [AD006],Kd,"KRAS G12D G12D, P01116-2; [16]",77.6 nM
same,Kd,[2]; [16],939 nM
GAGTGACCGTCTGCCTGACAACAACGAGTGCGAACTGTACTACTTGATAGAGACCCTC [AP023],Kd,[3]; [17],93.2 nM
same,Kd,[2]; [17],51.7 nM
GAGTGACCGTCTGCCTGACAACAACGAGTGCGAACTGTACTACTTGATAGAGACCCTCAGCCACACCACCAGCC [AP013],Kd,[3]; [17],74 nM
same,Kd,[2]; [17],19.1 nM
GAGTGACCGTCTGCCTGCCCCGCCTCTTCTGAAGTTAACATGTGCTCCGAGATGGTACAGCCACACCACCAGCC [AD009],Kd,"KRAS G12D G12D, P01116-2; [18]",0.51 nM
same,Kd,[2]; [18],0.65 nM
GAGTGACCGTCTGCCTGGACTAGCATAAGTCCGGATGGCAGCTTTATGCCGACCATCAGCCACACCACCAGCC [AD003],Kd,"KRAS G12D G12D, P01116-2; [19]",13.8 nM
same,Kd,[2]; [19],13 nM
GAGTGACCGTCTGCCTGGATATGCCTCTTCTGCAGTTACGGTGTGATCGCCCAATAGCAGCCACACCACCAGCC [TD009],Kd,"KRAS G12D G12D, P01116-2; Nap-dU at n (6) positions [Nap-dU at 20,22,26,28,29,31,36,37,42,44,47,55]",2480 nM
GAGTGACCGTCTGCCTGTCAATCACTGACGAAATGTACTACTTGATAGAGCTAACCTCAGCCACACCACCAGCC [AP027],Kd,[3]; [20],354 nM
same,Kd,[2]; [20],2.17 nM
GAGTGACCGTCTGCCTGTCTCCAACCTCGCCTTTACAACTATATCTGACGAACTAACACAGCCACACCACCAGCC [AB001],Kd,"[1]; Nap-dU at n (6) positions [Nap-dU at 16,18,20,27,32,33,34,40,42,44,46,54], SB18 buffer (5 mM MgCl2), 37 C",0.04 nM
same,Kd,"[2]; Nap-dU at n (6) positions [Nap-dU at 16,18,20,27,32,33,34,40,42,44,46,54]",8.39 nM
GAGTGACCGTCTGCCTGTGTCTGAGGGACCCTTTTTAAGGGCATTATCAGCATGCCTCACACAGCCACACCACCAGCC [AD002],Kd,"KRAS G12D G12D, P01116-2; [21]",0.55 nM
same,Kd,[2]; [21],1.3 nM
GAGTGACCGTCTGCCTGTGTGAGAATTATGTACCTTAACGATCATCCGAAGGTTTTGACCACAGCCACACCACCAGCC [AD001],Kd,"KRAS G12D G12D, P01116-2; [22]",8.12 nM
same,Kd,[2]; [22],8.4 nM
GCATAAGTCCGGATGGCAGCTTTATGC [AD008],Kd,"KRAS G12D G12D, P01116-2; [23]",287 nM
same,Kd,[2]; [23],66.9 nM
GCATAAGTCCGGATGGCAGCTTTATGCCGACC [AD007],Kd,"KRAS G12D G12D, P01116-2; [24]",152 nM
same,Kd,[2]; [24],536 nM
GCCTGACAACAACGAGTGCGAACTGTACTACTTGATAGAGACCCTCAGCC [AP001],Kd,[3]; [25],42.7 nM
same,Kd,[2]; [25],20.9 nM
GCCTGCCCCGCCTCTTCTGAAGTTAACATGTGCTCCGAGATGGTACAGCC [AD010],Kd,"KRAS G12D G12D, P01116-2; [26]",8.18 nM
same,Kd,[2]; [26],4.49 nM
GCCTGGACTAGCATAAGTCCGGATGGCAGCTTTATGCCGACCATCAGCC [AD004],Kd,"KRAS G12D G12D, P01116-2; [27]",16.6 nM
same,Kd,[2]; [27],190 nM
GCCTGTCTCCAACCTCGCCTTTACAACTATATCTGACGAACTAACACAGCC [AB002],Kd,"[1]; Nap-dU at n (6) positions [6,8,15,20,21,22,28,30,32,34,42], SB18, 37 C",0.48 nM
same,Kd,"[2]; Nap-dU at n (6) positions [6,8,15,20,21,22,28,30,32,34,42]",2.92 nM
GTCTGCCTGACAACAACGAGTGCGAACTGTACTACTTGATAGAGACCCTC [AP024],Kd,[3]; [28],33.3 nM
same,Kd,[2]; [28],22.3 nM
GTCTGCCTGACAACAACGAGTGCGAACTGTACTACTTGATAGAGACCCTCAGCCACACCACCAGCC [AP022],Kd,[3]; [28],66.6 nM
same,Kd,[2]; [28],16.6 nM
GTGTGACCTGAAGACGTATAACTTTTACAGAATCTACA [AD050],Kd,"KRAS G12D G12D, P01116-2; [29]",455 nM
same,Kd,[2]; [29],5.55 nM
TCGAGCTGTACGCGTGTGTGACCTGAAGACGTATAACTTTTACAGAATCTACA [AD053],Kd,"KRAS G12D G12D, P01116-2; [30]",1.03 nM
same,Kd,[2]; [30],1.37 nM
TCGCCTTTACAACTATATCTGACGA [AB007],Kd,[1]; [31],0.49 nM
same,Kd,[2]; [32],186 nM
TCGCCTTTACAACTATATCTGACGAAC [AB006],Kd,[1]; [31],0.44 nM
same,Kd,[2]; [32],278 nM
TCTCCAACCTCGCCTTTACAACTATATCTGACGAACTAACA [AB003],Kd,"[1]; Nap-dU at n (6) positions [1,3,10,15,16,17,23,25,27,29,37], SB18, 37 C",0.87 nM
same,Kd,"[2]; Nap-dU at n (6) positions [1,3,10,15,16,17,23,25,27,29,37]",19.8 nM
